Assay results: PMC5984683 (Cancer research, 2018)
Like-named read-outs stand apart in the source and are kept apart here.

Tests used:
[1] = biological target: T1, full-length recombinant Fzd7 (human, UniProt O75084 33-574); assay: co-IP
[2] = biological target: T1, full-length recombinant Fzd7; assay: co-IP; remark: listed apart in the source

binding result [1] | binding result [2] | Binder
binds |  | DAVEEGDWTATVVDQQDCTLSLQLTTPANA [TG2 peptide 81[residues removed]110]
 | binds | full length recombinant TG2 (enzyme, UniProt P21980 1-687, looked up) MAEELVLERCDLELETNGRDHHTADLCREKLVVRRGQPFWLTLHFEGRNYEASVDSLTFSVVTGPAPSQEAGTKARFPLRDAVEEGDWTATVVDQQDCTLSLQLTTPANAPIGLYRLSLEASTGYQGSSFVLGHFILLFNAWCPADAVYLDSEEERQEYVLTQQGFIYQGSAKFIKNIPWNFGQFEDGILDICLILLDVNPKFLKNAGRDCSRRSSPVYVGRVVSGMVNCNDDQGVLLGRWDNNYGDGVSPMSWIGSVDILRRWKNHGCQRVKYGQCWVFAAVACTVLRCLGIPTRVVTNYNSAHDQNSNLLIEYFRNEFGEIQGDKSEMIWNFHCWVESWMTRPDLQPGYEGWQALDPTPQEKSEGTYCCGPVPVRAIKEGDLSTKYDAPFVFAEVNADVVDWIQQDDGSVHKSINRSLIVGLKISTKSVGRDEREDITHTYKYPEGSSEEREAFTRANHLNKLAEKEETGMAMRIRVGQSMNMGSDFDVFAHITNNTAEEYVCRLLLCARTVSYNGILGPECGTKYLLNLNLEPFSEKSVPLCILYEKYRDCLTESNLIKVRALLVEPVINSYLLAERDLYLENPEIKIRILGEPKQKRKLVAEVSLQNPLPVALEGCTFTVEGAGLTEEQKTVEIPDPVEAGEEVKVRMDLLPLHMGLHKLVVNFESDKLKAVKGFRNVIIGPA
 | binds | recombinant mutant TG2 (C277A) (enzyme) MAEELVLERCDLELETNGRDHHTADLCREKLVVRRGQPFWLTLHFEGRNYEASVDSLTFSVVTGPAPSQEAGTKARFPLRDAVEEGDWTATVVDQQDCTLSLQLTTPANAPIGLYRLSLEASTGYQGSSFVLGHFILLFNAWCPADAVYLDSEEERQEYVLTQQGFIYQGSAKFIKNIPWNFGQFEDGILDICLILLDVNPKFLKNAGRDCSRRSSPVYVGRVVSGMVNCNDDQGVLLGRWDNNYGDGVSPMSWIGSVDILRRWKNHGCQRVKYGQAWVFAAVACTVLRCLGIPTRVVTNYNSAHDQNSNLLIEYFRNEFGEIQGDKSEMIWNFHCWVESWMTRPDLQPGYEGWQALDPTPQEKSEGTYCCGPVPVRAIKEGDLSTKYDAPFVFAEVNADVVDWIQQDDGSVHKSINRSLIVGLKISTKSVGRDEREDITHTYKYPEGSSEEREAFTRANHLNKLAEKEETGMAMRIRVGQSMNMGSDFDVFAHITNNTAEEYVCRLLLCARTVSYNGILGPECGTKYLLNLNLEPFSEKSVPLCILYEKYRDCLTESNLIKVRALLVEPVINSYLLAERDLYLENPEIKIRILGEPKQKRKLVAEVSLQNPLPVALEGCTFTVEGAGLTEEQKTVEIPDPVEAGEEVKVRMDLLPLHMGLHKLVVNFESDKLKAVKGFRNVIIGPA
